Test results: patent publication US20100196266A1
Blank lines part the entries; values can stand above or below the binder they belong to.

Assays:
[1] = molecular target: human leukocyte antigen-DR (HLA-DR) on human lymphoma and leukemia cell lines and human lymphocytes (human); test: indirect flow cytometry, Namalwa cells, FITC-GAM; none 2.91; control antibody
[2] = molecular target: human leukocyte antigen-DR (HLA-DR) on human lymphoma and leukemia cell lines and human lymphocytes (human); test: indirect FACS, FITC-GAH Fc, Namalwa cells; none 2.5; control antibody
[3] = molecular target: human leukocyte antigen-DR (HLA-DR) on human lymphoma and leukemia cell lines and human lymphocytes (human); test: indirect flow cytometry, FITC-GAH Fc, SU-DHL-6 cells; none 4.6; negative control
[4] = molecular target: antigen recognised by L243 on canine lymphocytes and canine lymphoma cells (HLA-DR of the dog) (dog); test: flow cytometry, canine lymphoma aspirate 150836; none 3.2; control antibody
[5] = molecular target: human leukocyte antigen-DR (HLA-DR) on human lymphoma and leukemia cell lines and human lymphocytes (human); test: indirect flow cytometry, FITC-GAH Fc, RL cells; none 2.4; negative control
[6] = molecular target: human leukocyte antigen-DR (HLA-DR) on human lymphoma and leukemia cell lines and human lymphocytes (human); test: indirect FACS, FITC-GAH Fc, Daudi cells; none 3.1; control antibody
[7] = molecular target: human leukocyte antigen-DR (HLA-DR) on human lymphoma and leukemia cell lines and human lymphocytes (human); test: indirect flow cytometry, FITC-GAH Fc, Raji cells; none 6.9; negative control
[8] = molecular target: antigen recognised by L243 on canine lymphocytes and canine lymphoma cells (HLA-DR of the dog) (dog); test: flow cytometry, dog lymphoma aspirate; none 4.48; control antibody
[9] = molecular target: human leukocyte antigen-DR (HLA-DR) on human lymphoma and leukemia cell lines and human lymphocytes (human); test: indirect flow cytometry, FITC-GAH Fc, Ramos cells; none 3.1; negative control
[10] = molecular target: human leukocyte antigen-DR (HLA-DR) on human lymphoma and leukemia cell lines and human lymphocytes (human); test: indirect FACS, FITC-GAH Fc, SU-DHL-6 cells; none 4.6; control antibody
[11] = molecular target: human leukocyte antigen-DR (HLA-DR) on human lymphoma and leukemia cell lines and human lymphocytes (human); test: indirect FACS, FITC-GAH Fc, Ramos cells; none 3.1; control antibody
[12] = molecular target: human leukocyte antigen-DR (HLA-DR) on human lymphoma and leukemia cell lines and human lymphocytes (human); test: indirect FACS, FITC-GAH Fc, WSU-FSCCL cells; none 2.6; control antibody
[13] = molecular target: human leukocyte antigen-DR (HLA-DR) on human lymphoma and leukemia cell lines and human lymphocytes (human); test: indirect flow cytometry, FITC-GAH Fc, Daudi cells; none 3.2; negative control
[14] = molecular target: antigen recognised by L243 on canine lymphocytes and canine lymphoma cells (HLA-DR of the dog) (dog); test: flow cytometry, dog lymphoma aspirate; none 3.24; control antibody
[15] = molecular target: human leukocyte antigen-DR (HLA-DR) on human lymphoma and leukemia cell lines and human lymphocytes (human); test: indirect flow cytometry, FITC-GAH Fc, Namalwa cells; none 2.6; negative control
[16] = molecular target: human leukocyte antigen-DR (HLA-DR) on human lymphoma and leukemia cell lines and human lymphocytes (human); test: indirect flow cytometry, Namalwa cells, FITC-GAH; none 2.52; control antibody
[17] = molecular target: human leukocyte antigen-DR (HLA-DR) on human lymphoma and leukemia cell lines and human lymphocytes (human); test: indirect flow cytometry, FITC-GAH Fc, WSU-FSCCL cells; none 2.7; negative control
[18] = molecular target: antigen recognised by L243 on canine lymphocytes and canine lymphoma cells (HLA-DR of the dog) (dog); test: flow cytometry, canine lymphoma aspirate 150836; none 4.5; control antibody
[19] = molecular target: human leukocyte antigen-DR (HLA-DR) on human lymphoma and leukemia cell lines and human lymphocytes (human); test: indirect FACS, FITC-GAH Fc, Raji cells; none 6.8; control antibody
[20] = molecular target: antigen recognised by L243 on canine lymphocytes and canine lymphoma cells (HLA-DR of the dog) (dog); test: flow cytometry, dog lymphoma aspirate; none 4.48
[21] = molecular target: antigen recognised by L243 on canine lymphocytes and canine lymphoma cells (HLA-DR of the dog) (dog); test: flow cytometry, canine lymphoma aspirate 150836; none 4.5
[22] = molecular target: antigen recognised by L243 on canine lymphocytes and canine lymphoma cells (HLA-DR of the dog) (dog); test: flow cytometry, dog lymphoma aspirate; none 3.24
[23] = molecular target: antigen recognised by L243 on canine lymphocytes and canine lymphoma cells (HLA-DR of the dog) (dog); test: flow cytometry, canine lymphoma aspirate 150836; none 3.2
[24] = molecular target: antigen recognised by L243 on canine lymphocytes and canine lymphoma cells (HLA-DR of the dog) (dog); test: flow cytometry, dog lymphoma aspirate; none 3.37
[25] = molecular target: antigen recognised by L243 on canine lymphocytes and canine lymphoma cells (HLA-DR of the dog) (dog); test: flow cytometry, dog lymphoma aspirate; none 3.85
[26] = molecular target: antigen recognised by L243 on canine lymphocytes and canine lymphoma cells (HLA-DR of the dog) (dog); test: flow cytometry, canine lymphoma aspirate 150836; none 3.4
[27] = molecular target: antigen recognised by L243 on canine lymphocytes and canine lymphoma cells (HLA-DR of the dog) (dog); test: flow cytometry, canine lymphoma aspirate 150836; none 3.9

B2: hMN-14, labetuzumab (humanized anti-carcinoembryonic antigen IgG1) (antibody, INN chains, looked up, V domains shown)
VH: EVQLVESGGGVVQPGRSLRLSCSASGFDFTTYWMSWVRQAPGKGLEWIGEIHPDSSTINYAPSLKDRFTISRDNAKNTLFLQMDSLRPEDTGVYFCASLYFGFPWFAYWGQGTPVTVSS
VL: DIQLTQSPSSLSASVGDRVTITCKASQDVGTSVAWYQQKPGKAPKLLIYWTSTRHTGVPSRFSGSGSGTDFTFTISSLQPEDIATYYCQQYSLYRSFGQGTKVEIKR
- Geometric Mean Fluorescence [2]: 2.36
- Geometric Mean Fluorescence [3]: 4.9
- mean FL [4]: 3.2
- Geometric Mean Fluorescence [5]: 2.8
- Geometric Mean Fluorescence [6]: 3.16
- Geometric Mean Fluorescence [7]: 7
- % Positive [8]: 4.63%
- Geometric Mean Fluorescence [9]: 3.1
- Geometric Mean Fluorescence [10]: 4.94
- Geometric Mean Fluorescence [11]: 3.13
- Geometric Mean Fluorescence [12]: 2.66
- Geometric Mean Fluorescence [13]: 3.2
- mean FL [14]: 3.24
- Geometric Mean Fluorescence [15]: 2.4
- GEO MEAN Fluorescence [16]: 2.49
- Geometric Mean Fluorescence [17]: 2.7
- % Positive [18]: 4.6%
- Geometric Mean Fluorescence [19]: 6.96

B3: hL243γ4P (humanized L243, IgG4/K isotype with hinge mutation Ser241Pro) (antibody, V domains shown)
VH: QVQLQQSGSELKKPGASVKVSCKASGFTFTNYGMNWVKQAPGQGLKWMGWINTYTREPTYADDFKGRFAFSLDTSVSTAYLQISSLKADDTAVYFCARDITAVVPTGFDYWGQGSLVTVSS
VL: DIQLTQSPSSLSASVGDRVTITCRASENIYSNLAWYRQKPGKAPKLLVFAASNLADGVPSRFSGSGSGTDYTFTISSLQPEDIATYYCQHFWTTPWAFGGGTKLQIKR
- % Positive [20]: 26.3%
- % Positive [21]: 26.2%
- mean FL [22]: 5.47
- mean FL [23]: 5.5

Next, values leading:

- GEO MEAN Fluorescence [1]: 3.32
B1: murine MN-14 (anti-carcinoembryonic antigen) (antibody, from a related filing, V domains shown)
VH: EVKLLESGGGLVQSGGSLKLSCAASGFDFTTYWMSWVRQAPGKGLEWIGEIHPDSSTINYAPSLKDKFIVSRDNAKNTLYLQMSKVRSEDTALYYCASLYFGFPWFAYWGQGTPVTVSA
VL: EIQLTQSHKMMSTSVGDRVSITCKASQDVGTSVAWYQQRPGQSPKLLIYWTSTRHTGVPDRFTGSVSGTDFTLTITNVQSEDLADYFCQQYSLYRSFGGGTKLEIK

- mean FL [24]: 10.4
- % Positive [25]: 77.8%
- mean FL [26]: 10.4
- % Positive [27]: 77.8%
B4: murine monoclonal antibody L243 (mL243) (antibody, V domains shown)
VH: QIQLVQSGPELKKPGETVKISCKASGFTFTNYGMNWVKQAPGKGLKWMGWINTYTREPTYADDFKGRFAFSLETSASTAYLQINNLKNEDTAKYFCARDITAVVPTGFDYWGQGTTLTVSS
VL: DIQMTQSPASLSVSVGETVTITCRASENIYSNLAWYRQKQGKSPQLLVFAASNLADGVPSRFSGSGSGTQYSLKINSLQSEDFGDYYCQHFWTTPWAFGGGTNLEIKR
